Consider seven molecules from patent US6632633B1, “Process for oxidation of steroids and genetically engineered cells used therein” (Aventis Pharma, S.A., priority 1988, dated 2003).

In data set [1] the test system is pregnenolone. Particulars: after expression in HeLa cells of the respective cDNA's; cited from earlier work.
Data set [2] addresses T1, ADX purified from bovine adrenal cortex, P00257.
T1 chain: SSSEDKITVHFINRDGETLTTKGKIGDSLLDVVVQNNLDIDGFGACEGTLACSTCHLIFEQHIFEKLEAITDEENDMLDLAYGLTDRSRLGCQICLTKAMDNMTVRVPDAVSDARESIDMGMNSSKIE

Data set [3] has as its target T2, Bovine adrenodoxin (ADX), mature protein with added methionine start, expressed in K. lactis from pGBADX-1 or pGBSCC/ADX-1, P00257.
T2 chain: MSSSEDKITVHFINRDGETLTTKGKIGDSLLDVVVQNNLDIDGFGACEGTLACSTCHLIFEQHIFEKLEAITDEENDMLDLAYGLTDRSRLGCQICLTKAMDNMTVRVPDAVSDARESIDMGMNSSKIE

Data set [4] deals with T3, cytochrome P450SCC (Bos taurus, UniProt P00189).
T3 construct: 1.5 μM of P450 SCC (purified from bovine adrenal cortex); from tissue; host or cells: bovine adrenal cortex
T3 sequence (P00189 40-520): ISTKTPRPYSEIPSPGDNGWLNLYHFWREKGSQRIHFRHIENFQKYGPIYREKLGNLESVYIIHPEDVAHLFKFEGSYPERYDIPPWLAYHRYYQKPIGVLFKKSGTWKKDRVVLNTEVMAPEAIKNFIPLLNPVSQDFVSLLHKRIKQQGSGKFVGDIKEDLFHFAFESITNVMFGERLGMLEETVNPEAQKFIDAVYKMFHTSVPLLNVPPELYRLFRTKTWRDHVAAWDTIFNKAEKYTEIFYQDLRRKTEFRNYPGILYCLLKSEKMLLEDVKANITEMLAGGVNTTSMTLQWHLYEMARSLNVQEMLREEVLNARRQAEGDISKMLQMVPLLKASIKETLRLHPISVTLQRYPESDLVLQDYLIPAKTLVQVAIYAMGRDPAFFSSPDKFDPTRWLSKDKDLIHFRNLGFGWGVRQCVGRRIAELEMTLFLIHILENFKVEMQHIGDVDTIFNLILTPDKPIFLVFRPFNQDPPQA
Briefly: ADX activity (electron transfer from adrenodoxin reductase to cytochrome P450SCC) in cell-free extracts by P450SCC activity assay. Conditions: within 15 minutes at 30° C. It is filed as biochemical, bovine. The method, then:
K. lactis ADX-102, obtained as described in Example 23, and control strain K. lactis CBS 2360 were grown in 100 ml of YEPD medium (1% yeast extract, 2% peptone, 2% glucose monohydrate) containing 2.5 ml of a 6.7% (w/w) yeast nitrogen base (Difco laboratories) solution and 100 mg 1^−1 of geneticin (G418 sulfate; Gibco Ltd.), for 56 hours at 30° C. The cells were collected by centrifugation (4,000×g, 15 minutes), resuspended in a physiological salt solution and washed with a phosphate buffer (pH 7.0, 50 mM). After centrifugation (4,000×g, 15 minutes), the pellet was resuspended in a phosphate buffer (pH 7.0, 50 mM) resulting in a suspension containing 0.5 g cell wet weight/ml. The cells were disrupted using a Braun MSK Homogenizer (6×15 seconds, 0.45-0.50 mm glass beads) and unbroken cells were removed by centrifugation (4,000×g, 15 minutes). […]
ADX activity, i.e. electrotransfer capacity from adrenodoxin reductase to cytochrome P450SCC, in the cell-free extracts was determined by a P450SCC activity assay. […]
The assay was started by mixing 75 μl of solution A with 50 μl of solution B and 125 μl of cell-free extract or 125 μl of a potassium phosphate buffer (50 mM, pH 7.0) containing 10 μM ADX (purified from bovine adrenal cortex). […] The suspension was heated for 15 minutes at 120° C. and then, the ^14C/^3H ratio was determined by double label liquid scintillation counting. […]

B1: type II 3β HSDH: human 3β HSDH type II, isolated from adrenals and gonads (protein, UniProt P26439 1-372, looked up)
3 beta-hydroxysteroid …: MGWSCLVTGAGGLLGQRIVRLLVEEKELKEIRALDKAFRPELREEFSKLQNRTKLTVLEGDILDEPFLKRACQDVSVVIHTACIIDVFGVTHRESIMNVNVKGTQLLLEACVQASVPVFIYTSSIEVAGPNSYKEIIQNGHEEEPLENTWPTPYPYSKKLAEKAVLAANGWNLKNGDTLYTCALRPTYIYGEGGPFLSASINEALNNNGILSSVGKFSTVNPVYVGNVAWAHILALRALRDPKKAPSVRGQFYYISDDTPHQSYDNLNYILSKEFGLRLDSRWSLPLTLMYWIGFLLEVVSFLLSPIYSYQPPFNRHTVTLSNSVFTFSYKKAQRDLAYKPLYSWEEAKQKTVEWVGSLVDRHKETLKSKTQ
On to B1, for which, in data set [1], the Km is 1.2 µM.

B2: P450SCC expressed from pre-P450SCC encoding DNA in yeast (pGBSCC-12 in K. lactis, pGBSCC-13 in S. cerevisiae SCC-105) (protein)
chain: MLARGLPLRSALVKACPPILSTVGEGWGHHRVGTGEGAGISTKTPRPYSEIPSPGDNGWLNLYHFWREKGSQRIHFRHIENFQKYGPIYREKLGNLESVYIIHPEDVAHLFKFEGSYPERYDIPPWLAYHRYYQKPIGVLFKKSGTWKKDRVVLNTEVMAPEAIKNFIPLLNPVSQDFVSLLHKRIKQQGSGKFVGDIKEDLFHFAFESITNVMFGERLGMLEETVNPEAQKFIDAVYKMFHTSVPLLNVPPELYRLFRTKTWRDHVAAWDTIFNKAEKYTEIFYQDLRRKTEFRNYPGILYCLLKSEKMLLEDVKANITEMLAGGVNTTSMTLQWHLYEMARSLNVQEMLREEVLNARRQAEGDISKMLQMVPLLKASIKETLRLHPISVTLQRYPESDLVLQDYLIPAKTLVQVAIYAMGRDPAFFSSPDKFDPTRWLSKDKDLIHFRNLGFGWGVRQCVGRRIAELEMTLFLIHILENFKVEMQHIGDVDTIFNLILTPDKPIFLVFRPFNQDPPQA
Consider B2, for which the “side chain cleavage of cholesterol (P450SCC activity assay, 14C/3H ratio)” value in data set [2] was “During 3 hours of incubation, 45% of the cholesterol had been converted”.

B3: adrenodoxin reductase purified from bovine adrenal cortex (protein)
chain: STQEQTPQICVVGSGPAGFYTAQHLLKHHSRAHVDIYEKQLVPFGLVRFGVAPDHPEVKNVINTFTQTARSDRCAFYGNVEVGRDVTVQELQDAYHAVVLSYGAEDHQALDIPGEELPGVFSARAFVGWYNGLPENRELAPDLSCDTAVILGQGNVALDVARILLTPPDHLEKTDITEAALGALRQSRVKTVWIVGRRGPLQVAFTIKELREMIQLPGTRPMLDPADFLGLQDRIKEAARPRKRLMELLLRTATEKPGVEEAARRASASRAWGLRFFRSPQQVLPSPDGRRAAGIRLAVTRLEGIGEATRAVPTGDVEDLPCGLVLSSIGYKSRPIDPSVPFDPKLGVVPNMEGRVVDVPGLYCSGWVKRGPTGVITTTMTDSFLTGQILLQDLKAGHLPSGPRPGSAFIKALLDSRGVWPVSFSDWEKLDAEEVSRGQASGKPREKLLDPQEMLRLLGH
For B3, the “side chain cleavage of cholesterol (P450SCC activity assay, 14C/3H ratio)” value in data set [2] and in data set [3] was “the side chain of the cholesterol was cleaved within 15 minutes in a yield of 50%” throughout.

B4: purified ADX: adrenodoxin purified from bovine adrenal cortex, 10 μM in buffer (protein)
chain: SSSEDKITVHFINRDGETLTTKGKIGDSLLDVVVQNNLDIDGFGACEGTLACSTCHLIFEQHIFEKLEAITDEENDMLDLAYGLTDRSRLGCQICLTKAMDNMTVRVPDAVSDARESIDMGMNSSKIE
In the case of B4, the “yield of cholesterol side chain cleavage” value in data set [4] came out at 50%.

B5: type I enzyme: human 3β-hydroxy-5-ene steroid dehydrogenase/5-ene-4-ene isomerase type I, isolated from placenta, also expressed in skin (protein, UniProt P14060 2-373, looked up)
3 beta-hydroxysteroid …: TGWSCLVTGAGGFLGQRIIRLLVKEKELKEIRVLDKAFGPELREEFSKLQNKTKLTVLEGDILDEPFLKRACQDVSVIIHTACIIDVFGVTHRESIMNVNVKGTQLLLEACVQASVPVFIYTSSIEVAGPNSYKEIIQNGHEEEPLENTWPAPYPHSKKLAEKAVLAANGWNLKNGGTLYTCALRPMYIYGEGSRFLSASINEALNNNGILSSVGKFSTVNPVYVGNVAWAHILALRALQDPKKAPSIRGQFYYISDDTPHQSYDNLNYTLSKEFGLRLDSRWSFPLSLMYWIGFLLEIVSFLLRPIYTYRPPFNRHIVTLSNSVFTFSYKKAQRDLAYKPLYSWEEAKQKTVEWVGSLVDRHKETLKSKTQ
As for B5, the Michaelis constant (Km) in data set [1] was 0.24 µM.

B6: P450SCC purified from bovine adrenal cortex (protein)
chain: ISTKTPRPYSEIPSPGDNGWLNLYHFWREKGSQRIHFRHIENFQKYGPIYREKLGNLESVYIIHPEDVAHLFKFEGSYPERYDIPPWLAYHRYYQKPIGVLFKKSGTWKKDRVVLNTEVMAPEAIKNFIPLLNPVSQDFVSLLHKRIKQQGSGKFVGDIKEDLFHFAFESITNVMFGERLGMLEETVNPEAQKFIDAVYKMFHTSVPLLNVPPELYRLFRTKTWRDHVAAWDTIFNKAEKYTEIFYQDLRRKTEFRNYPGILYCLLKSEKMLLEDVKANITEMLAGGVNTTSMTLQWHLYEMARSLNVQEMLREEVLNARRQAEGDISKMLQMVPLLKASIKETLRLHPISVTLQRYPESDLVLQDYLIPAKTLVQVAIYAMGRDPAFFSSPDKFDPTRWLSKDKDLIHFRNLGFGWGVRQCVGRRIAELEMTLFLIHILENFKVEMQHIGDVDTIFNLILTPDKPIFLVFRPFNQDPPQA
In the case of B6, the “side chain cleavage of cholesterol (P450SCC activity assay, 14C/3H ratio)” value in data set [2] and in data set [3] was “the side chain of the cholesterol was cleaved within 15 minutes in a yield of 50%” each time.

B7: Bovine cytochrome P450 side chain cleavage enzyme (P450SCC), mature protein with added methionine start, expressed recombinantly (pGBSCC-5, pGBSCC-17, … (protein)
chain: MISTKTPRPYSEIPSPGDNGWLNLYHFWREKGSQRIHFRHIENFQKYGPIYREKLGNLESVYIIHPEDVAHLFKFEGSYPERYDIPPWLAYHRYYQKPIGVLFKKSGTWKKDRVVLNTEVMAPEAIKNFIPLLNPVSQDFVSLLHKRIKQQGSGKFVGDIKEDLFHFAFESITNVMFGERLGMLEETVNPEAQKFIDAVYKMFHTSVPLLNVPPELYRLFRTKTWRDHVAAWDTIFNKAEKYTEIFYQDLRRKTEFRNYPGILYCLLKSEKMLLEDVKANITEMLAGGVNTTSMTLQWHLYEMARSLNVQEMLREEVLNARRQAEGDISKMLQMVPLLKASIKETLRLHPISVTLQRYPESDLVLQDYLIPAKTLVQVAIYAMGRDPAFFSSPDKFDPTRWLSKDKDLIHFRNLGFGWGVRQCVGRRIAELEMTLFLIHILENFKVEMQHIGDVDTIFNLILTPDKPIFLVFRPFNQDPPQA
On to B7, for which the “cholesterol side-chain cleaving reaction in the presence of NADPH and ADR” value in data set [3] is recorded as “cholesterol side-chain cleaving activity was demonstrated in the cell-free extract of K. lactis SCC/ADX-101, whereas the cell-free extract of K. lactis SCC-101, no activity was detectable”.
